Results reported in patent US20240076391A1 (ONCURIOUS, published 2024).
Where a chain is given by its changes, count along the chain named. Numbers in names are those of the source.

Experiments:
human CCR8 [1] = target: T1, human CCR8 (human, UniProt P51685 1-355); test: flow cytometry, human CCR8 stably expressed in HEK293 cells
T1 construct: also called hCCR8

[2] = target: T2, N-terminal deletion human CCR8 (delta 18-3XHA) (human, UniProt P51685 20-355); test: flow cytometry; an extracellular loop binder is defined in paragraph 224 as binding on hCCR8 cells and on human CCR8 (delta18-3XHA)
T2 construct: N-terminally deleted construct with 3XHA, expressed on transfected HEK293 cells
Source text: VHH clones resulting from the human CCR8 immunization and selection campaign were screened by means of flow cytometry for binding to human CCR8 (SEQ ID NO: 79) on stably transfected HEK293 cells or to HEK293 cells previously transfected with plasmid DNA encoding three different versions of human-mouse chimera CCR8 in which one of the extracellular loops (ECLs) was replaced with the mouse CCR8 counterpart, as well as to an N-terminal deletion human CCR8 (SEQ ID NO: 80, delta 18-3XHA herein after), in comparison to mock-transfected control cells. Comparison of the binding (median fluorescent intensity) signal of a given VHH clone across the seven cell lines enabled classification of said clone as an N-terminal human CCR8 binder (i.e. binding on hCCR8 cells, but not on human CCR8 (delta18-3XHA) or control cells) or as an extracellular loop hCCR8 binder (i.e. binding on hCCR8 cells and on human CCR8 (delta18-3XHA), but not on control cells). Binding comparison across the cell lines expressing human-mouse chimera CCR8 allowed to further classify extracellular hCCR8 binders as either ECL1, ECL2 or ECL3 binders.

human CCR8 [3] = target: T1, human CCR8; test: flow cytometry competition with FLAG3-His6 tagged parental VHH-65 on hCCR8 cells
Source text: (§1) Multiple His6 tagged VHH variants were thus generated and evaluated by flow cytometry f for their ability to compete for binding to hCCR8 with their FLAG3-His6 tagged parental counterparts. […] Variants that retained binding capacity where selected for further biophysical and chemical stability analysis.

human CCR8 [4] = target: T1, human CCR8; test: flow cytometry competition with FLAG3-His6 tagged parental VHH-56 on hCCR8 cells
Source text: as §1

human CCR8 [5] = target: T1, human CCR8; test: competition with VHH-65 for CCR8 binding
human CCR8 [6] = target: T1, human CCR8; test: flow cytometry competition with FLAG3-His6 tagged parental VHH-74 on hCCR8 cells
Source text: as §1

T1 sequence (P51685 whole entry): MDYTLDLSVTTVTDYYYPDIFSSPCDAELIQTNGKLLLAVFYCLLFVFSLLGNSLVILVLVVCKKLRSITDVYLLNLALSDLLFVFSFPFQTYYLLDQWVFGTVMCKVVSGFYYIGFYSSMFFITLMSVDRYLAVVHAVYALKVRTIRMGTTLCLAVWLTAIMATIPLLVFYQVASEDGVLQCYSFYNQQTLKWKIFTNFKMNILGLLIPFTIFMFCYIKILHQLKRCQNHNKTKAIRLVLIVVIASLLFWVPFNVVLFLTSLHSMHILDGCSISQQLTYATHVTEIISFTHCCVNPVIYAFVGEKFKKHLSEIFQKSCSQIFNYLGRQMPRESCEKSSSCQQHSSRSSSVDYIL
T2 sequence (P51685 other isoform, or with tags, fused parts or gaps mutant): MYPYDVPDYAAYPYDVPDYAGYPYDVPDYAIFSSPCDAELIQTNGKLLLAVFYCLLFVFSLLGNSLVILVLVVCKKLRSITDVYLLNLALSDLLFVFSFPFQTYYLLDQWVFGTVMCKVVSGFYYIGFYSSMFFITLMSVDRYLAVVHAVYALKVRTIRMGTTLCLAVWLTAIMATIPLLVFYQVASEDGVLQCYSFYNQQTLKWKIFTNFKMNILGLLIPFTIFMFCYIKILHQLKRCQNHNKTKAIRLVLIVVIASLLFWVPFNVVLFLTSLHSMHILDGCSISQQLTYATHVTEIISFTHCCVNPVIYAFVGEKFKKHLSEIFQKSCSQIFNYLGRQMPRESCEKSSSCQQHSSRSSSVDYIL

B1: VHH-65 (VHH)
VHH: EVQLVESGGGLVQPGGSLRLSCAASGRAFSSYNMGWFRQAPGKERDFVATISSSGTNYANSVKGRFTISRDNAKNTVYLQMNSLRPEDTAVYYCNAKTVTRTGGVITGSRIEYDYWGQGTLVTVSS
notes: Monovalent VHH purified from E. coli periplasm by IMAC; not shown: C-terminal FLAG3 and His6 tags
- binding result (human CCR8 [1]): binds
- binding result [2]: binds

B2: VHH-89 (VHH)
VHH: B1 VHH with E1D, D46E, N60D
notes: also called VHH-65 E1D, D46E, N60D; not shown: C-terminal His6 tag (no FLAG3)
- binding result (human CCR8 [3]): binds

B3: VHH-114 (VHH)
VHH: DVQLVESGGGLVQPGGSLRLSCAASRSIYNVLAMGWYRQAPGKERELVAVVWSSGNTNYADSVKGRFTISRDNAKNTVYLQMNSLRPEDTAVYYCYSKSLIGTSRYEIWGQGTLVTVSS
notes: 'V691' is printed, probably V69I; also called VHH-56 E1D, M32L, V691; not shown: C-terminal His6 tag (no FLAG3)
- binding result (human CCR8 [4]): binds

B4: VHH-56 (VHH)
VHH: B3 VHH with D1E, L32M, I69V
notes: Monovalent VHH purified from E. coli periplasm by IMAC; PelB signal peptide is removed on export; not shown: C-terminal FLAG3 and His6 tags
- binding result (human CCR8 [1]): binds
- binding result [2]: binds

B5: VHH-115 (VHH)
VHH: B3 VHH with L32R
notes: 'V691' is printed, probably V69I; also called VHH-56 E1D, M32R, V691; not shown: C-terminal His6 tag (no FLAG3)
- binding result (human CCR8 [4]): binds

B6: VHH-74 (VHH)
VHH: EVQLVESGGGLVQPGGSLRLSCAASGSTFSIKSIGWYRQAPGKQRELVADITRGAGINYADSVKGRFTISRDNTKNTMYLQMNSLRPEDTAVYYCNVKTIKRTGGIMTGSKIEYDYWGQGTLVTVSS
notes: as for B1
- binding result (human CCR8 [5]): binds

B7: VHH-125 (VHH)
VHH: B6 VHH with E1D, T74A, M78V, M107L
notes: also called VHH-74 E1D, T74A, M78V, M107L; not shown: C-terminal His6 tag (no FLAG3)
- binding result (human CCR8 [6]): binds
